Experimental data from the Human Domainome abundance scans (Beltran et al. 2025).

B1: Ankyrin repeat and SAM domain-containing protein 6, residues 774 to 836; numbered along this chain, Q68DC2 (parent)
chain: DEDELTGILKKLSLEKYQPIFEEQEVDMEAFLTLTDGDLKELGIKTDGSRQQILAAISELNAG

Variants of: B1
Assay: abundance fitness (aPCA) (normalised: wild type 0, dead -1); higher = more abundant; growth selection in yeast, the domain comes from the species named
Conditions: Homo sapiens

Abundance fitness, by site and new letter:
L54: A -0.359
I44: V 0.037; R -0.676; A -0.574; T -0.555; P -0.746; S -0.651; N -0.645; Q -0.643; G -0.592; W -0.654; M -0.253; H -0.806; C -0.458; F -0.144; L -0.245; Y -0.766; E -0.586
G43: Y -1.22; W -1.16
K45: Y -0.233; H -0.076; V -0.225; N -0.079; E 0.013; L -0.066; A -0.055; R -0.027; D 0.079; C -0.191; P -0.044; T -0.02; F -0.143; M 0.008; G -0.114; I -0.348; Q -0.151
G48: F -0.339; D -0.016; W -0.424; L -0.042; A -0.047; T 0.149; K -0.131; S 0.007; Q -0.039; E 0.107; Y -0.321; M -0.113
I53: C -0.404; Q -0.686; S -0.44; P -0.44; N -0.451; D -0.33; R -0.559; L -0.002; T -0.345; A -0.331; W -0.904; H -0.481; V -0.104; F -0.432; E -0.319; M -0.062
S49: V 0.062; K -0.186; H 0.009; P -0.208; Y -0.242; Q -0.03; T -0.054; E 0.181; F -0.249; L -0.191; M -0.068; C 0.096; R -0.192; G -0.055; W -0.391; N 0.003; D 0.157
Q51: L -0.252; T -0.163; A -0.084; R -0.092; E -0.128; W -0.724; P -0.54; S -0.082; V -0.233; D -0.076; G -0.216; Y -0.483; M -0.215; C -0.379; N -0.044
Q52: A -0.04; Y -0.574; G -0.279; H -0.155; W -0.805; P -0.715; M -0.302; S -0.105; T -0.2; K -0.095; D 0.112; N -0.193; L -0.132; C -0.12; E 0.079; F -0.667; I -0.211
R50: T -0.71; L -0.623; G -0.677; V -0.492; P -0.649; H -0.527; C -0.363; A -0.494; M -0.722; S -0.524; Q -0.621; I -0.292; E -0.526; F -1; W -0.706; K -0.582; Y -0.834; N -0.653
T46: D 0.118; F -0.361; M -0.039; S 0.017; E 0.084; C 0.016; P -0.048; H 0.151; K 0.061; Q -0.201; W -0.521; N -0.159; G -0.011; I -0.019; L -0.116; V -0.138; Y -0.197
D47: R -0.149; T -0.029; L -0.089; G -0.158; E 0.056; H 0.042; K -0.126; S -0.114; I -0.058; A -0.061; N -0.126; W -0.309; M -0.138; C -0.128; V -0.049; Y -0.114; F -0.14; Q -0.054
